Data as given in the supplement of paper PMC10567573.

B1: GMCL1 (parent)
chain: FCYCAGSHKRKRSSGSFCYCHPDS

Variants of: B1
Test: protein stability index of a GFP-peptide fusion (GPS, HEK-293T) (PSI 1-6); higher = more stable
Settings: c terminus: a fixed tail appended
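Further: lentivirally expressed fusions sorted by FACS into six bins by GFP to DsRed ratio, PSI derived from sequencing read proportions per bin multiplied by bin number.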

**Q.** With FCYCAGSHKRERSSGSFCYCHPDS as the variant, how does the protein stability index read?
**A.** 1.87

**Q.** Which protein stability index does the source give for FCYCAGSHKRIRSSGSFCYCHPDS here?
**A.** 2.92

**Q.** With FCYCAGSHKRQRSSGSFCYCHPDS as the variant, how does the protein stability index read?
**A.** 1.33

**Q.** For FCYCAGSHKRPRSSGSFCYCHPDS, which protein stability index is on record?
**A.** 2.31

**Q.** With FCYCAGSHKRLRSSGSFCYCHPDS as the variant, how does the protein stability index read?
**A.** 2.41

**Q.** Which protein stability index does the source give for FCYCAGSHKRGRSSGSFCYCHPDS here?
**A.** 1.97

**Q.** For FCYCAGSHKRNRSSGSFCYCHPDS, which protein stability index is on record?
**A.** 1.93

**Q.** For FCYCAGSHKRSRSSGSFCYCHPDS, which protein stability index is on record?
**A.** 2.85

**Q.** With FCYCAGSHKRFRSSGSFCYCHPDS as the variant, how does the protein stability index read?
**A.** 1.68

**Q.** For FCYCAGSHKRMRSSGSFCYCHPDS, which protein stability index is on record?
**A.** 2.29

**Q.** Which protein stability index does the source give for FCYCAGSHKRTRSSGSFCYCHPDS here?
**A.** 2.22

**Q.** For FCYCAGSHKRCRSSGSFCYCHPDS, which protein stability index is on record?
**A.** 1.77

**Q.** Which protein stability index does the source give for FCYCAGSHKRWRSSGSFCYCHPDS here?
**A.** 2.03

**Q.** Which protein stability index does the source give for FCYCAGSHKRDRSSGSFCYCHPDS here?
**A.** 2.45

**Q.** For FCYCAGSHKRYRSSGSFCYCHPDS, which protein stability index is on record?
**A.** 2.95

**Q.** With FCYCAGSHKRRRSSGSFCYCHPDS as the variant, how does the protein stability index read?
**A.** 1.98

**Q.** For FCYCAGSHKRHRSSGSFCYCHPDS, which protein stability index is on record?
**A.** 2.18

**Q.** With FCYCAGSHKRVRSSGSFCYCHPDS as the variant, how does the protein stability index read?
**A.** 1.39

**Q.** For FCYCAGSHKRARSSGSFCYCHPDS, which protein stability index is on record?
**A.** 1.59

**Q.** For FCYCAGSHQRKRSSGSFCYCHPDS, which protein stability index is on record?
**A.** 2.01

**Q.** For FCYCAGSHPRKRSSGSFCYCHPDS, which protein stability index is on record?
**A.** 1.52

**Q.** With FCYCAGSHTRKRSSGSFCYCHPDS as the variant, how does the protein stability index read?
**A.** 1.29

**Q.** Which protein stability index does the source give for FCYCAGSHSRKRSSGSFCYCHPDS here?
**A.** 2.76

**Q.** Which protein stability index does the source give for FCYCAGSHMRKRSSGSFCYCHPDS here?
**A.** 1.77

**Q.** For FCYCAGSHIRKRSSGSFCYCHPDS, which protein stability index is on record?
**A.** 1.94

**Q.** For FCYCAGSHLRKRSSGSFCYCHPDS, which protein stability index is on record?
**A.** 1.99

**Q.** Which protein stability index does the source give for FCYCAGSHVRKRSSGSFCYCHPDS here?
**A.** 2.57

**Q.** For FCYCAGSHARKRSSGSFCYCHPDS, which protein stability index is on record?
**A.** 1.63

**Q.** With FCYCAGSHWRKRSSGSFCYCHPDS as the variant, how does the protein stability index read?
**A.** 2.62

**Q.** Which protein stability index does the source give for FCYCAGSHNRKRSSGSFCYCHPDS here?
**A.** 2.05

**Q.** With FCYCAGSHCRKRSSGSFCYCHPDS as the variant, how does the protein stability index read?
**A.** 2

**Q.** For FCYCAGSHYRKRSSGSFCYCHPDS, which protein stability index is on record?
**A.** 2.8

**Q.** With FCYCAGSHGRKRSSGSFCYCHPDS as the variant, how does the protein stability index read?
**A.** 1.57

**Q.** With FCYCAGSHERKRSSGSFCYCHPDS as the variant, how does the protein stability index read?
**A.** 2.14

**Q.** Which protein stability index does the source give for FCYCAGSHRRKRSSGSFCYCHPDS here?
**A.** 1.61

**Q.** Which protein stability index does the source give for FCYCAGSHDRKRSSGSFCYCHPDS here?
**A.** 1.99

**Q.** Which protein stability index does the source give for FCYCAGSHFRKRSSGSFCYCHPDS here?
**A.** 2.13

**Q.** With FCYCAGSHHRKRSSGSFCYCHPDS as the variant, how does the protein stability index read?
**A.** 1.86

**Q.** For FCYCAGSHKRKDSSGSFCYCHPDS, which protein stability index is on record?
**A.** 2.06

**Q.** Which protein stability index does the source give for FCYCAGSHKRKHSSGSFCYCHPDS here?
**A.** 1.96

**Q.** For FCYCAGSHKRKGSSGSFCYCHPDS, which protein stability index is on record?
**A.** 1.38

**Q.** Which protein stability index does the source give for FCYCAGSHKRKESSGSFCYCHPDS here?
**A.** 1.15

**Q.** With FCYCAGSHKRKFSSGSFCYCHPDS as the variant, how does the protein stability index read?
**A.** 1.64

**Q.** Which protein stability index does the source give for FCYCAGSHKRKCSSGSFCYCHPDS here?
**A.** 1.85

**Q.** For FCYCAGSHKRKASSGSFCYCHPDS, which protein stability index is on record?
**A.** 2.04

**Q.** With FCYCAGPHKRKRSSGSFCYCHPDS as the variant, how does the protein stability index read?
**A.** 1.7

**Q.** For FCYCAGVHKRKRSSGSFCYCHPDS, which protein stability index is on record?
**A.** 1.93

**Q.** With FCYCAGMHKRKRSSGSFCYCHPDS as the variant, how does the protein stability index read?
**A.** 1.98

**Q.** Which protein stability index does the source give for FCYCAGKHKRKRSSGSFCYCHPDS here?
**A.** 2.29

**Q.** For FCYCAGYHKRKRSSGSFCYCHPDS, which protein stability index is on record?
**A.** 1.59

**Q.** For FCYCAGHHKRKRSSGSFCYCHPDS, which protein stability index is on record?
**A.** 1.59

**Q.** With FCYCAGIHKRKRSSGSFCYCHPDS as the variant, how does the protein stability index read?
**A.** 1.75

**Q.** With FCYCAGNHKRKRSSGSFCYCHPDS as the variant, how does the protein stability index read?
**A.** 2.16

**Q.** With FCYCAGWHKRKRSSGSFCYCHPDS as the variant, how does the protein stability index read?
**A.** 1.9

**Q.** With FCYCAGRHKRKRSSGSFCYCHPDS as the variant, how does the protein stability index read?
**A.** 2.34

**Q.** Which protein stability index does the source give for FCYCAGLHKRKRSSGSFCYCHPDS here?
**A.** 1.89

**Q.** Which protein stability index does the source give for FCYCAGTHKRKRSSGSFCYCHPDS here?
**A.** 2.98

**Q.** With FCYCAGQHKRKRSSGSFCYCHPDS as the variant, how does the protein stability index read?
**A.** 1.77

**Q.** Which protein stability index does the source give for FCYCAGSCKRKRSSGSFCYCHPDS here?
**A.** 2.37

**Q.** For FCYCAGSTKRKRSSGSFCYCHPDS, which protein stability index is on record?
**A.** 1.67

**Q.** With FCYCAGSLKRKRSSGSFCYCHPDS as the variant, how does the protein stability index read?
**A.** 1.1

**Q.** Which protein stability index does the source give for FCYCAGSKKRKRSSGSFCYCHPDS here?
**A.** 1.99

**Q.** For FCYCAGSEKRKRSSGSFCYCHPDS, which protein stability index is on record?
**A.** 2.1

**Q.** Which protein stability index does the source give for FCYCAGSGKRKRSSGSFCYCHPDS here?
**A.** 2.88

**Q.** Which protein stability index does the source give for FCYCAGSNKRKRSSGSFCYCHPDS here?
**A.** 2.19

**Q.** With FCYCAGSRKRKRSSGSFCYCHPDS as the variant, how does the protein stability index read?
**A.** 1.9

**Q.** With FCYCAGSYKRKRSSGSFCYCHPDS as the variant, how does the protein stability index read?
**A.** 2.57

**Q.** Which protein stability index does the source give for FCYCAGSVKRKRSSGSFCYCHPDS here?
**A.** 1.89

**Q.** For FCYCAGSPKRKRSSGSFCYCHPDS, which protein stability index is on record?
**A.** 1.94

**Q.** With FCYCAGSWKRKRSSGSFCYCHPDS as the variant, how does the protein stability index read?
**A.** 2.59

**Q.** For FCYCAGSDKRKRSSGSFCYCHPDS, which protein stability index is on record?
**A.** 1.67

**Q.** With FCYCAGSMKRKRSSGSFCYCHPDS as the variant, how does the protein stability index read?
**A.** 1.66

**Q.** With FCYCAGSSKRKRSSGSFCYCHPDS as the variant, how does the protein stability index read?
**A.** 2.33

**Q.** For FCYCAGSFKRKRSSGSFCYCHPDS, which protein stability index is on record?
**A.** 1.97

**Q.** With FCYCAGSQKRKRSSGSFCYCHPDS as the variant, how does the protein stability index read?
**A.** 1.43

**Q.** With FCYCAGSIKRKRSSGSFCYCHPDS as the variant, how does the protein stability index read?
**A.** 1.48

**Q.** For FCYCAGSHKKKRSSGSFCYCHPDS, which protein stability index is on record?
**A.** 1.96

**Q.** With FCYCAGSHKIKRSSGSFCYCHPDS as the variant, how does the protein stability index read?
**A.** 2.32

**Q.** Which protein stability index does the source give for FCYCAGSHKYKRSSGSFCYCHPDS here?
**A.** 1.85

**Q.** Which protein stability index does the source give for FCYCAGSHKGKRSSGSFCYCHPDS here?
**A.** 2.27

**Q.** Which protein stability index does the source give for FCYCAGSHKSKRSSGSFCYCHPDS here?
**A.** 1.82

**Q.** Which protein stability index does the source give for FCYCAGSHKFKRSSGSFCYCHPDS here?
**A.** 1.4

**Q.** With FCYCAGSHKHKRSSGSFCYCHPDS as the variant, how does the protein stability index read?
**A.** 1.68

**Q.** Which protein stability index does the source give for FCYCAGSHKVKRSSGSFCYCHPDS here?
**A.** 1.81

**Q.** Which protein stability index does the source give for FCYCAGSHKLKRSSGSFCYCHPDS here?
**A.** 1.99

**Q.** Which protein stability index does the source give for FCYCAGSHKQKRSSGSFCYCHPDS here?
**A.** 2.29

**Q.** For FCYCAGSHKDKRSSGSFCYCHPDS, which protein stability index is on record?
**A.** 2.02

**Q.** For FCYCAGSHKNKRSSGSFCYCHPDS, which protein stability index is on record?
**A.** 2.24

**Q.** With FCYCAGSHKWKRSSGSFCYCHPDS as the variant, how does the protein stability index read?
**A.** 1.92

**Q.** Which protein stability index does the source give for FCYCAGSHKTKRSSGSFCYCHPDS here?
**A.** 2.27

**Q.** With FCYCAGSHKEKRSSGSFCYCHPDS as the variant, how does the protein stability index read?
**A.** 2.5

**Q.** With FCYCAGSHKPKRSSGSFCYCHPDS as the variant, how does the protein stability index read?
**A.** 1.9

**Q.** For FCYCAGSHKAKRSSGSFCYCHPDS, which protein stability index is on record?
**A.** 2.48

**Q.** Which protein stability index does the source give for FCYCAGSHKMKRSSGSFCYCHPDS here?
**A.** 1.9
